Experimental data taken from patent US11879019B2, “Dual-enzyme responsive peptides” (THE REGENTS OF THE UNIVERSITY OF CALIFORNIA, priority 2016, dated 2024).
“Also recorded” adds a separate entry of the source. Like-named read-outs stand apart in the source and are kept apart here. Square brackets hold non-standard residues; d marks the D form. Side chains are listed from the residue outwards. Peptide text beside a SMILES is read from it. * marks the point of attachment. ξ: configuration not given here. X2 = CN(CCN*)C(=S)Oc1ccc2c3c1O[C@H]1C(=O)CC[C@@]4(O)[C@@H](C2)N(CC2CC2)CC[C@]314; X1 = CN(CCN*)C(=O)Oc1ccc2c3c1OC1C(=O)CCC4(O)C(C2)N(CC2CC2)CCC314; X3 = CC(=O)N[C@@H](CCCCN*)C(=O)Nc1ccc([N+](=O)[O-])cc1; X4 = CN(CCN*)C(=O)Oc1ccc([N+](=O)[O-])cc1; Trt = c1ccc(C(c2ccccc2)(c2ccccc2)*)cc1; pNA = O=[N+]([O-])c1ccc(N*)cc1; ξF = NC(Cc1ccccc1)C(=O)O; Boc = CC(C)(C)OC(=O)*; ξK = NCCCCC(N)C(=O)O; ξC = NC(CS)C(=O)O; ξA = CC(N)C(=O)O

Experiments:
[1] = tested on: caspase 8 and trypsin; assay: Caspase 8 + trypsin assay (pNA release, absorbance at 405 nm); format: biochemical; conditions: for cleavage by caspase 8 (absorbance increase): caspase 8 only, commercial single enzyme substrates
Experimental: (§1) Caspase 3 was taken directly from stock solution containing 1000 U/μL. A stock solution of trypsin was prepared by dissolving the enzyme (5 mg/ml) in 1 mM HCl. The peptide substrates were dissolved in DMSO to make 10 mM solutions. These were then diluted to 2.5 mM with pH 7.5 0.1 M HEPES containing 10 mM DTT, 2 mM EDTA, and 10% v/v glycerol. In a 96-well plate, 84 μL of buffer and 5 μL peptide were mixed together before measuring the absorbance at 405 nm to serve as a blank. 1 μL caspase-3 was added, and the plate was incubated at 23° C. for 12-24 hours and absorbance was measured again. Then, 5 μL trypsin were added to the well and absorbance measurements were taken at pre-determined time points. All conditions prepared and measured in triplicate. The same protocol was used for caspase 8 assays, adjusting peptide substrate concentration as needed.

[2] = tested on: trypsin and chymotrypsin; assay: pNA release assay of CAAK(F)-diamino-pNA; format: biochemical; conditions: 2 mM, trypsin and/or chymotrypsin, 90 minutes, 37° C.
Experimental: A stock solution of the CAAK(F)-diamino-pNA (SEQ ID NO: 4) was prepared in dimethyl sulfoxide (DMSO) to produce a 16.0 mg/mL solution. A 7.5 mg/mL stock solution of the trypsin was prepared in 50 mM NH4HCO3 buffer (pH=8.05). A 7.5 mg/mL stock solution of chymotrypsin was prepared in 50 mM NH4HCO3 buffer (pH=8.05).
A 96 well plate was used for monitoring the solutions at 405 nm using a plate reader. 20 μL of the peptide was combined with 62.0/66.6 μL of no enzyme, trypsin only, chymotrypsin only, or with both enzymes respectively. All solutions were diluted to a total volume of 200 μL using 50 mM NH4HCO3 (pH=8.05). Blanks were prepared by combining the enzymes with DMSO/buffer and their absorbances were subtracted from the cleavage conditions. Additionally, the residual signal from the peptide in the presence of no enzymes was also used as a blank and subtracted out from enzymatic conditions.

[3] = tested on: trypsin and chymotrypsin; assay: Trypsin + chymotrypsin assay (pNA release, absorbance at 405 nm); format: biochemical; conditions: for absorbance increase at 405 nm (pNA release): trypsin + chymotrypsin
Experimental: Stock solutions of enzymes were prepared by dissolving trypsin (60 mg/ml) in 1 mM HCl and chymotrypsin (60 mg/ml) in pH 7.4 0.035M HEPES+0.1M NaCl. The peptide substrate, (Ac-AAF)K-pNA, was dissolved in DMSO to make a 1 mM stock solution.
(§2) To wells in a 96-well plate, 87.5 μL pH 7.4 0.035M HEPES+0.1M NaCl and 2.5 μL peptide substrate were added. Absorbance was measured using a plate reader at 405 nm. Then, 5 μL trypsin and 5 μL chymotrypsin were added to the wells, and absorbance was measured at pre-determined time points. Absorbance values were subtracted from initial reading of only buffer and peptide. When testing only one enzyme, 5 μL buffer were added to keep total volume per well at 100 μL. All conditions prepared and measured in triplicate.
as §2, with “Stock solutions of enzymes were prepared by dissolving trypsin (60 mg/ml) in 1 mM HCl and chymotrypsin (60 mg/ml) in pH 7.4 0.035M HEPES+0.1M NaCl. The peptide substrate, (Ac-AAF)K-pNA, was dissolved in DMSO to make a 1 mM stock solution. To” for “To”, “were” for “prepared and”

[4] = for stability of the linker: over the entire pH range
Experimental: The stabilities of these linkages were assessed by HPLC by monitoring the relative amount of Naltrexone versus the intact peptide-Naltrexone conjugate.

[5] = tested on: caspase 3 and trypsin; assay: Caspase 3 + trypsin assay (pNA release, absorbance at 405 nm); format: biochemical
Experimental: as §1

[6] = tested on: papain and trypsin; assay: Papain + trypsin assay (pNA release, absorbance at 405 nm); format: biochemical
Experimental: Papain was reconstituted in deionized water at a concentration of 1 mg/ml. A stock solution of trypsin was prepared by dissolving the enzyme (10 mg/ml) in 1 mM HCl. The peptide substrate, (AcFG)K-pNA was dissolved in DMSO to make a 5 mM solution. Separately, 3M NaCl and 20 mM EDTA+50 mM cysteine (pH 6.2) solutions were prepared with deionized water. In a 96-well plate, 5 μL substrate were mixed with 45 μL NaCl and 40 μL EDTA+cysteine solutions. Absorbance was measured at 405 nm to serve as a blank. Then, 5 μL of both enzyme solutions were added, and absorbance measurements were taken at pre-determined time points. All conditions were prepared and measured in quadruplicate.

[7] = 500 μM, caspase 8 for 24 hours before adding trypsin

Compound: CC[C@H](C)[C@H](NC(C)=O)C(=O)N[C@@H](CCC(=O)O)C(=O)N1CCC[C@H]1C(=O)N[C@@H](CC(=O)O)C(=O)NCCCC[C@H](NC(C)=O)C(=O)Nc1ccc([N+](=O)[O-])cc1 [(AcIEPD)K-pNA] (Ac-IEPD-X3)
- absorbance increase [1, 7]: did not result in a significant absorbance increase
- absorbance increase ([1]; caspase 8 and trypsin, initial experiments): little to no absorbance increase

Compound: CC(=O)NC(CS)C(=O)NC(C)C(=O)NC(C)C(=O)NC(CCCCNC(=O)C(N)Cc1ccccc1)C(=O)NCCN(C)C(=O)Oc1ccc([N+](=O)[O-])cc1 (stereo not shown) [CAAK(F)-diamino-pNA] (Ac-CAAK(Phe)-X4; configuration not given here)
- theoretical pNA released [2]: 55%

Compound: CC(=O)N[C@@H](C)C(=O)N[C@@H](C)C(=O)N[C@@H](Cc1ccccc1)C(=O)NCCCC[C@H](NC(C)=O)C(=O)Nc1ccc([N+](=O)[O-])cc1 [(AcAAF)K-pNA]
- change in absorbance at 405 nm ([3]; 100 μM peptide, chymotrypsin only): no change in absorbance
- absorbance increase at 405 nm ([3]; 100 μM peptide, trypsin only): 0.016±0.002 AU
- absorbance increase at 405 nm (pNA release) ([3]; 100 μM substrate): 0.070±0.002 AU
- absorbance increase at 405 nm (pNA release) ([3]; 200 μM substrate): 0.147±0.002 AU
- absorbance increase at 405 nm (pNA release) ([3]; after five hours): 0.039±0.003 AU

Compound: CC(=O)NC(CSC(c1ccccc1)(c1ccccc1)c1ccccc1)C(=O)NC(C)C(=O)NC(C)C(=O)NC(CCCCNC(=O)C(Cc1ccccc1)NC(=O)OC(C)(C)C)C(=O)NCCN(C)C(=O)Oc1ccc2c3c1OC1C(=O)CCC4(O)C(C2)N(CC2CC2)CCC314 (stereo not shown) [NPC] (Ac-C(Trt)AAK([Phe-Boc])-X1; configuration not given here)
- Percent Degradation, t = 0.5 hr ([4]; conjugate without pH buffer): 0%
- Percent Degradation, t = 24 hr ([4]; conjugate without pH buffer): 0%
- stability of the linker [4]: very good stability
- Percent Degradation, t = 0.5 hr ([4]; pH 2): 6.00%
- Percent Degradation, t = 24 hr ([4]; pH 2): 12.30%
- Percent Degradation, t = 0.5 hr ([4]; pH 4): 3.50%
- Percent Degradation, t = 24 hr ([4]; pH 4): 2.89%
- Percent Degradation, t = 0.5 hr ([4]; pH 7): 1.50%
- Percent Degradation, t = 24 hr ([4]; pH 7): 3.62%
- Percent Degradation, t = 0.5 hr ([4]; pH 9): 5.56%
- Percent Degradation, t = 24 hr ([4]; pH 9): 5.17%
- Percent Degradation, t = 0.5 hr ([4]; pH 12): 7.03%
- Percent Degradation, t = 24 hr ([4]; pH 12): 6.94%

Compound: CC(=O)N[C@@H](CCCCNC(=O)[C@H](CC(=O)O)NC(=O)[C@H](CCC(=O)O)NC(=O)[C@@H](NC(=O)[C@H](CC(=O)O)NC(C)=O)C(C)C)C(=O)Nc1ccc([N+](=O)[O-])cc1 [(AcDVED)K-pNA] (Ac-DVED-X3)
- pNA release ([5]; trypsin and caspase 3): no pNA release

Compound: CC(=O)NC(CS)C(=O)NC(C)C(=O)NC(C)C(=O)NC(CCCCNC(=O)C(N)Cc1ccccc1)C(=O)NCCN(C)C(=S)Oc1ccc2c3c1O[C@H]1C(=O)CC[C@@]4(O)[C@@H](C2)N(CC2CC2)CC[C@]314 (stereo partly shown) [NPT] (Ac-[ξC][ξA][ξA][ξK](ξF)-X2)
- Percent Degradation, t = 0.5 hr ([4]; conjugate without pH buffer): 0.51%
- Percent Degradation, t = 24 hr ([4]; conjugate without pH buffer): 2.90%
- stability of the linker [4]: more stable than the carbamate linker
- Percent Degradation, t = 0.5 hr ([4]; pH 2): 3.23%
- Percent Degradation, t = 24 hr ([4]; pH 2): 4.10%
- Percent Degradation, t = 0.5 hr ([4]; pH 4): 1.67%
- Percent Degradation, t = 24 hr ([4]; pH 4): 2.04%
- Percent Degradation, t = 0.5 hr ([4]; pH 7): 3.22%
- Percent Degradation, t = 24 hr ([4]; pH 7): 3.59%
- Percent Degradation, t = 0.5 hr ([4]; pH 9): 4.69%
- Percent Degradation, t = 24 hr ([4]; pH 9): 3.37%
- Percent Degradation, t = 0.5 hr ([4]; pH 12): 5.15%
- Percent Degradation, t = 24 hr ([4]; pH 12): 6.72%

Compound: AcIEPD-pNA: commercially available single enzyme caspase substrate (SEQ ID NO: 8) (Ac-IEPD-pNA; SMILES CC[C@H](C)[C@H](NC(C)=O)C(=O)N[C@@H](CCC(=O)O)C(=O)N1CCC[C@H]1C(=O)N[C@@H](CC(=O)O)C(=O)Nc1ccc([N+](=O)[O-])cc1)
- cleavage by caspase 8 (absorbance increase) [1]: cleaved as expected; also recorded: significant absorbance increase over time

Compound: CC(=O)N[C@@H](CCCCNC(=O)[C@H](CC(=O)O)NC(=O)[C@@H](NC(=O)[C@H](CCC(=O)O)NC(=O)[C@H](CC(=O)O)NC(C)=O)C(C)C)C(=O)Nc1ccc([N+](=O)[O-])cc1 [(AcDEVD)K-pNA]
- absorbance increase at 405 nm ([5]; 125 μM substrate, first caspase-3 then trypsin, over 60 minutes): 0.1±0.006 AU
- pNA release relative to release from commercial substrate AcDEVD-pNA ([5]; caspase 3 digestion): 83%
- absorbance increase ([5]; trypsin or caspase 3 only): no absorbance increase
- absorbance increase [1, 7]: did not result in a significant absorbance increase

Compound: CC(=O)N[C@@H](Cc1ccccc1)C(=O)NCC(=O)NCCCC[C@H](NC(C)=O)C(=O)Nc1ccc([N+](=O)[O-])cc1 [(AcFG)K-pNA]
- absorbance increase ([6]; each enzyme separately (papain only or trypsin only)): no absorbance increase
- pNA release ([6]; papain and trypsin, varying substrate concentrations): substrate dependent

Compound: AcDEVD-pNA: commercially available single enzyme caspase substrate (SEQ ID NO: 7)
- cleavage by caspase 8 (absorbance increase) [1]: cleaved as expected; also recorded: significant absorbance increase over time
